Experimental data: publication PMC1851384, “Involvement of maternal embryonic leucine zipper kinase (MELK) in mammary carcinogenesis through interaction with Bcl-G, a pro-apoptotic member of the Bcl-2 family” (Breast Cancer Research, 2007)

Biological target: T1, His-tagged wild-type MELK recombinant protein (human, UniProt Q14680-1 1-651)
T1 construct: pET21a usually adds a C-terminal His6 tag; also called WT-MELK; His-tagged WT-MELK; source: E. coli BL21 codon-plus (DE3) RIL, purified (Ni-NTA superflow, nondenaturing)
T1 sequence (Q14680 whole entry): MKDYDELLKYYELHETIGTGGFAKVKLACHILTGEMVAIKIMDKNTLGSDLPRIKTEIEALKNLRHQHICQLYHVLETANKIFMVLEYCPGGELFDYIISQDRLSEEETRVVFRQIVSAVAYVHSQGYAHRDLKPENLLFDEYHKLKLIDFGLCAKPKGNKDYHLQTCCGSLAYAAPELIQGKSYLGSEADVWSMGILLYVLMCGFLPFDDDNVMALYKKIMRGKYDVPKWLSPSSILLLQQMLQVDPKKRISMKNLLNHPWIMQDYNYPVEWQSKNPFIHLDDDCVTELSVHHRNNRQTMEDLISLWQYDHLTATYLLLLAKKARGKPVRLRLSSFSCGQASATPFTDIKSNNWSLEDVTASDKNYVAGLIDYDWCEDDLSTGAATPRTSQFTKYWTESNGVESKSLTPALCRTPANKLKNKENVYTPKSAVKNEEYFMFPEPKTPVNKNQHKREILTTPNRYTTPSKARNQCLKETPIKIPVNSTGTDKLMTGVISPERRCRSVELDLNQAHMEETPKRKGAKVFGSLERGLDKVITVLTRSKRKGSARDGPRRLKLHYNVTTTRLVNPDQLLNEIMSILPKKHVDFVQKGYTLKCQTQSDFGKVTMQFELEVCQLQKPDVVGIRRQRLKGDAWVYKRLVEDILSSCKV
Test: pull-down; in vitro binding assay: 10 ug His-tagged MELK held by anti-6XHis antibody on protein G Sepharose; 5 ug Bcl-GL recombinant protein in 500 ul binding buffer (50 mM Tris, 75 mM NaCl, 10 mM MgCl2, 1 mM DTT, 2% BSA, 100 uM ATP), 30 minutes at 4°C; blot with anti-Bcl-GL
Conditions: both partners purified

B1: Bcl-GL recombinant protein (GST removed) (natural protein, human, UniProt Q9BZR8-1 1-327, looked up)
chain: MCSTSGCDLEEIPLDDDDLNTIEFKILAYYTRHHVFKSTPALFSPKLLRTRSLSQRGLGNCSANESWTEVSWPCRNSQSSEKAINLGKKKSSWKAFFGVVEKEDSQSTPAKVSAQGQRTLEYQDSHSQQWSRCLSNVEQCLEHEAVDPKVISIANRVAEIVYSWPPPQATQAGGFKSKEIFVTEGLSFQLQGHVPVASSSKKDEEEQILAKIVELLKYSGDQLERKLKKDKALMGHFQDGLSYSVFKTITDQVLMGVDPRGESEVKAQGFKAALVIDVTAKLTAIDNHPMNRVLGFGTKYLKENFSPWIQQHGGWEKILGISHEEVD
notes: source: E. coli BL21 codon-plus RIL, purified (Glutathione Sepharose 4B), GST removed with PreScission protease
  binding result: binds
